From patent publication US20050214772, “Thio modified aptamer synthetic methods and compositions” (Board Of Regents, The University Of Texas System, published 2005)

Assays:
[1] = target: NF-IL6 (C/EBPbeta) tryptic core domain bZIP (TCD) (UniProt P17676); assay: FP; conditions: Kobs, direct titration, normal phosphate backbone
NF-kB p50 homodimer [2] = target: T1, NF-kB p50 homodimer (UniProt P19838 P19838:1-433); assay: EMSA; competition with 32P-IgkB; specificity lost on full thiolation; conditions: chain copies: 2 (stated)
T1 sequence (P19838 1-433, one chain of several): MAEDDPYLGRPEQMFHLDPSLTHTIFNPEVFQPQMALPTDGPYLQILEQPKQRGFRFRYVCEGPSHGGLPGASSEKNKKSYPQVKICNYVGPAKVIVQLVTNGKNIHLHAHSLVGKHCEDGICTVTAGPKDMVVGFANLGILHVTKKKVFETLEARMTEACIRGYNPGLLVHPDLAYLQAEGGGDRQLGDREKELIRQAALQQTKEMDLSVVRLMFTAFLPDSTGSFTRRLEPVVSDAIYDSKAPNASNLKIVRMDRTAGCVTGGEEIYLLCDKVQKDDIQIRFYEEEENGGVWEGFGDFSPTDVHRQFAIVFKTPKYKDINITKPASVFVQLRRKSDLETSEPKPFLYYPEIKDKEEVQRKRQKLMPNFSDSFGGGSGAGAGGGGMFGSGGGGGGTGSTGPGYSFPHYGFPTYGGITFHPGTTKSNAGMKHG
Description: In standard competitive binding assays, ³²P-IgκB promoter element ODN duplex was incubated with recombinant p50 or p65 and competitor oligonucleotide (A) phosphodiester CK-1; (B) phosphorothioate CK-1. The reactions were then run on a nondenaturing polyacrylamide gel, and the amount of radioactivity bound to protein and shifted in the gel was quantitated by direct counting. […] It is the recognition that [S]-ODNs with large numbers of phosphorothioate linkages are “sticky” and tend to bind with poor specificity to proteins that led to one of the embodiments of the present invention. Using the method disclosed herein it was determined that if the number of phosphorothioate linkages is reduced to only 2-4, specificity can be restored, but binding is not enhanced.

c-Rel homodimer [3] = target: T2, c-Rel homodimer (UniProt Q04864 Q04864:2-619); assay: EMSA; binds and competes; conditions: chain copies: 2 (stated)
T2 sequence: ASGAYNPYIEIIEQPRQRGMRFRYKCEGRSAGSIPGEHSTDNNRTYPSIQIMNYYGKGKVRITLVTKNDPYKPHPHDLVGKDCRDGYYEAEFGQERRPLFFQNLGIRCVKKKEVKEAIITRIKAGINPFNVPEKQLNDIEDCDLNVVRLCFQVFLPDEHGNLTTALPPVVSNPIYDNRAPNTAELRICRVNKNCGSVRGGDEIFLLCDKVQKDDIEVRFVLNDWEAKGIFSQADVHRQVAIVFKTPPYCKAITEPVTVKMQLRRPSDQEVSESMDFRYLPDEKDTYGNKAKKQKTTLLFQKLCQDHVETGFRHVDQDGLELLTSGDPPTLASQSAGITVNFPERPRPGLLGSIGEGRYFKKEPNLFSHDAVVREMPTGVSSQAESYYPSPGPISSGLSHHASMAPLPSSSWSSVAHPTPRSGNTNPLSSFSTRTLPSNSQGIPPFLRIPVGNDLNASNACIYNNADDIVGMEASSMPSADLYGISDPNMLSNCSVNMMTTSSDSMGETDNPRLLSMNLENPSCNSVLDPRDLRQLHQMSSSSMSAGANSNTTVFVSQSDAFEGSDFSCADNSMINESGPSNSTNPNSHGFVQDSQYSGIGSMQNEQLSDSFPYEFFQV

NF-kB p50 homodimer [4] = target: T1, NF-kB p50 homodimer; assay: EMSA; labeled probe in competition assays; conditions: chain copies: 2 (stated); label: 32P
NF-kB p50 homodimer [5] = target: T1, NF-kB p50 homodimer; assay: EMSA; full monothiolation loses specificity; conditions: chain copies: 2 (stated)
c-Rel homodimer [6] = target: T2, c-Rel homodimer; assay: EMSA; single-copy site behaves similarly to CK-1; conditions: chain copies: 2 (stated)

Chain of NF-IL6 (C/EBPbeta) tryptic core domain bZIP (TCD) (P17676 266-345): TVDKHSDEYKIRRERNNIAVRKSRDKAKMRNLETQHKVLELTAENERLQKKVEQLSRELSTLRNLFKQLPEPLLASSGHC

TGCAGATTGCGCAATCTGCA (double strand) [C/EBPbeta palindromic 20-mer]
Kd [1]: 10 nM

B1: CK-1 phosphorothioate duplex (dsDNA)
DNA 1: CCAGGAGATTCCACCCAGGAGATTCCACCCAGGAGATTCCAC
DNA 2: GTGGAATCTCCTGGGTGGAATCTCCTGGGTGGAATCTCCTGG
modifications: PS all linkages
binding result (NF-kB p50 homodimer [2]): binds

B2: CK-1 42-mer phosphodiester duplex (dsDNA)
DNA 1: B1 DNA 1
DNA 2: B1 DNA 2
binding result (c-Rel homodimer [3]): binds

B3: IgkB promoter element 22-mer (dsDNA)
DNA 1: AGTTGAGGGGACTTTCCCAGGC
DNA 2: GCCTGGGAAAGTCCCCTCAACT
binding result (NF-kB p50 homodimer [4]): binds

B4: CK-14 fully monothiolated duplex (dsDNA)
DNA 1: CCAGGAGATTCCAC
DNA 2: GTGGAATCTCCTGG
modifications: PS all linkages
binding result (NF-kB p50 homodimer [5]): binds

B5: CK-14 phosphodiester duplex (dsDNA)
DNA 1: CCAGGAGATTCCAC
DNA 2: GTGGAATCTCCTGG
binding result (c-Rel homodimer [6]): binds
